How the values were obtained:
AncSZ = assay: phosphorylation enrichment, bacterial display (enrichment ratio); higher = better substrate or ligand; peptides without Tyr show the background
EPHB1 = EPHB1 (UniProt P54762); assay: as above
EPHB2 = EPHB2 (UniProt P29323); assay: as above
FGFR1 = FGFR1 (UniProt P11362); assay: as above
FGFR3 = FGFR3 (UniProt P22607); assay: as above
Fer (mouse) = assay: as above
Fes = Fes (UniProt P07332); assay: as above
Fyn = Fyn (UniProt P06241); assay: as above
Hck = Hck (UniProt P08631); assay: as above
Jak2 = Jak2 (UniProt O60674); assay: as above
MERTK = MERTK (UniProt Q12866); assay: as above
MERTK, sequence (Q12866 whole entry, looked up): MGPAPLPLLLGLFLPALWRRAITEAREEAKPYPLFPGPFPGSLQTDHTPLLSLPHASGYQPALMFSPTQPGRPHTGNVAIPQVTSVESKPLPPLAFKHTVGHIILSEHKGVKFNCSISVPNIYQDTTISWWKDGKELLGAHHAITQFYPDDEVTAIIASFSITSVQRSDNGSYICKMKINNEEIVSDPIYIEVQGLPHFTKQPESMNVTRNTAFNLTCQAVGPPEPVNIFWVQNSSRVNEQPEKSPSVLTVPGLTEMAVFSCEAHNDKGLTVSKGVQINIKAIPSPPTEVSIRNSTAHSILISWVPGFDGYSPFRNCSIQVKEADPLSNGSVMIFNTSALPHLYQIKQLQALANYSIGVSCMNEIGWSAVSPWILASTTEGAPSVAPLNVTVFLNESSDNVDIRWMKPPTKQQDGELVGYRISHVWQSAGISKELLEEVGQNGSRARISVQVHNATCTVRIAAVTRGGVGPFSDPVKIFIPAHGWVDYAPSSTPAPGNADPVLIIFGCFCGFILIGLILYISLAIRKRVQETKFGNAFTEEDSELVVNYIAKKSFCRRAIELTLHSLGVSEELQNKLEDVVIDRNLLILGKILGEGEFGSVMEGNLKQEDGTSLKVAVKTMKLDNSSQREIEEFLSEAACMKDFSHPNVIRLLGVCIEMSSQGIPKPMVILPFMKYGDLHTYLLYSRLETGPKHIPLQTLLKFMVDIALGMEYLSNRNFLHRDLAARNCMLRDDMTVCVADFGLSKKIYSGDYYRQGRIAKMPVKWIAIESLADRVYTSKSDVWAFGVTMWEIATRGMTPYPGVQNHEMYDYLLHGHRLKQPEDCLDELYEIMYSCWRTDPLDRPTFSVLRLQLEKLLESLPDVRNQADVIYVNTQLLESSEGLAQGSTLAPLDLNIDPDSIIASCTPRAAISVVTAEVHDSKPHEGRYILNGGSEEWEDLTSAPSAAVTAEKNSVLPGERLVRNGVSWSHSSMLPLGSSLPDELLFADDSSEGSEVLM

c-Abl (mouse) = assay: as above
c-Src = assay: as above
Grb2 SH2 = Grb2 SH2 (UniProt P62993); assay: SH2 binding enrichment of the phosphorylated peptide, bacterial display (enrichment ratio); higher = better substrate or ligand; peptides without Tyr show the background
Grb2 SH2, sequence (P62993 whole entry, looked up): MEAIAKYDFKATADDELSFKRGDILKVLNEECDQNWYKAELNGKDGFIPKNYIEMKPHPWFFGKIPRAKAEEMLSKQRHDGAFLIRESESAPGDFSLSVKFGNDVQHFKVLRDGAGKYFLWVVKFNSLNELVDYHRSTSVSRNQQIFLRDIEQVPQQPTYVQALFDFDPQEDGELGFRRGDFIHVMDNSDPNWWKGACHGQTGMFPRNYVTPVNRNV

SHP2-C SH2 = assay: as above
c-Src SH2 = assay: as above
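Throughout, for SH2 binding enrichment of the phosphorylated peptide, bacterial display: peptide library displayed on the E. coli surface as eCPX fusions, selected cells deep-sequenced, score is each peptide's frequency after selection divided by its frequency in the input.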
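Throughout, for phosphorylation enrichment, bacterial display: 11-residue human phosphosite peptides and single-mutation variants displayed on the E. coli surface, counted by deep sequencing, each peptide's frequency after selection divided by its frequency in the unselected input library; frequency after pTyr selection over input frequency; kinase dosed for 20-30% of maximal phosphorylation in three min.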

FGFR3, sequence (P22607 whole entry, looked up): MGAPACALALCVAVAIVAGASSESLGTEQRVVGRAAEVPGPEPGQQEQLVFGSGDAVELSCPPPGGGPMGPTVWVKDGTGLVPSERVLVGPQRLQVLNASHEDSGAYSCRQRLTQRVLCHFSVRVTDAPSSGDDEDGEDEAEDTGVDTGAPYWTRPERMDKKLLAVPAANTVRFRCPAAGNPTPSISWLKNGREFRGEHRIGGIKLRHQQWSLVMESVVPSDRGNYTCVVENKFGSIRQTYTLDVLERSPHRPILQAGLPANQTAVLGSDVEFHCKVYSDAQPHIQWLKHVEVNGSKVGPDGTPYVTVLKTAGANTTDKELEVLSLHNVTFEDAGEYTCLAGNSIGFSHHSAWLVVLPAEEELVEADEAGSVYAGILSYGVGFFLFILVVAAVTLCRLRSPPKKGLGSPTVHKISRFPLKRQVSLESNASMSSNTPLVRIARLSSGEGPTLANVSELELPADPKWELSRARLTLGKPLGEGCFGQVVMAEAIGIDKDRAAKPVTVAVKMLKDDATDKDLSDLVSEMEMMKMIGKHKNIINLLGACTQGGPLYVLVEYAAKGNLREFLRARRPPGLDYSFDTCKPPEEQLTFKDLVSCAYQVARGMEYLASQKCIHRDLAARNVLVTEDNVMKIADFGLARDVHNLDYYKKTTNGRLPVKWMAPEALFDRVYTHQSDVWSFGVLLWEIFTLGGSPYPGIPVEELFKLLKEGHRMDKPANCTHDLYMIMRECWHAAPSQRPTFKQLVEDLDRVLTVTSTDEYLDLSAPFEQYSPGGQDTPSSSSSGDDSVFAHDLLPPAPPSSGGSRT
EPHB1, sequence (P54762 whole entry, looked up): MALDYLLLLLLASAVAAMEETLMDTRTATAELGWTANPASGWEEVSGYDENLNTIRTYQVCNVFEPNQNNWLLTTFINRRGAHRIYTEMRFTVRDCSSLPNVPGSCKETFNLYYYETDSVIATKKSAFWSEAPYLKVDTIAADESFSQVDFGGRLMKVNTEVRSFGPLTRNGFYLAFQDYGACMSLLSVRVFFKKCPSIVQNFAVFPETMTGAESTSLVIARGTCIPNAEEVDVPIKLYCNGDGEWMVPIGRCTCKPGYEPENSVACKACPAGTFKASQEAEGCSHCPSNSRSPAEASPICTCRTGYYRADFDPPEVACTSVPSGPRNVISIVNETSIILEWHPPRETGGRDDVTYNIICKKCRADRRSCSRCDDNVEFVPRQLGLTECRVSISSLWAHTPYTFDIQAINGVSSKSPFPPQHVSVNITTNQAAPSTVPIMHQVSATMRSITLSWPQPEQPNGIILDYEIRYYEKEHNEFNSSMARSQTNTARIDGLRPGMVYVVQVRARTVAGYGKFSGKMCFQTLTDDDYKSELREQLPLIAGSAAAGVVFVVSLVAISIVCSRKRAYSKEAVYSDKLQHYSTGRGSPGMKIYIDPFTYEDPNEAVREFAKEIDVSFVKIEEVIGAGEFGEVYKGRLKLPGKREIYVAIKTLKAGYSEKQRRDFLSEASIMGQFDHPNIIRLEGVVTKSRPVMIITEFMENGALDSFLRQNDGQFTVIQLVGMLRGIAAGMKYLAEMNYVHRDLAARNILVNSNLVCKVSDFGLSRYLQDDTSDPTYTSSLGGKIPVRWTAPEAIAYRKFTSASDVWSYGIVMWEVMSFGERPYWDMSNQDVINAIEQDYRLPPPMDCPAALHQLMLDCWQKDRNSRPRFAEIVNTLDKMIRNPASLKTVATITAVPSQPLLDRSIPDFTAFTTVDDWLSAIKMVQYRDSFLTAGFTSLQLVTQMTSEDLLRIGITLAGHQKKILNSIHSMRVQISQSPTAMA
Fyn, sequence (P06241 whole entry, looked up): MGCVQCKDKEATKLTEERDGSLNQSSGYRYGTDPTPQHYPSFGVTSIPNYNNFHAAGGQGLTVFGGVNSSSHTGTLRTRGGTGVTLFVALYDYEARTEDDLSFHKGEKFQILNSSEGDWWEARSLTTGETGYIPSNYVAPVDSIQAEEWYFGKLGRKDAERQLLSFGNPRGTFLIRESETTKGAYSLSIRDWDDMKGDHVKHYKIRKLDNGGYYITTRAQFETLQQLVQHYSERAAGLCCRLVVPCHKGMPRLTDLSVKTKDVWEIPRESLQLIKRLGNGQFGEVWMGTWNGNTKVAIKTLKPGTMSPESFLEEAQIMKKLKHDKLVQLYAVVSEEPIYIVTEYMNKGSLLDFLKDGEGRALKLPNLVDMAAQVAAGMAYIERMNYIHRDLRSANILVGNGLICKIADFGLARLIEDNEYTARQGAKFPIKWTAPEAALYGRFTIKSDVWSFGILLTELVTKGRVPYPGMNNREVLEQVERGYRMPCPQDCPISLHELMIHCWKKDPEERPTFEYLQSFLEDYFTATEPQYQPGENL
EPHB2, sequence (P29323 whole entry, looked up): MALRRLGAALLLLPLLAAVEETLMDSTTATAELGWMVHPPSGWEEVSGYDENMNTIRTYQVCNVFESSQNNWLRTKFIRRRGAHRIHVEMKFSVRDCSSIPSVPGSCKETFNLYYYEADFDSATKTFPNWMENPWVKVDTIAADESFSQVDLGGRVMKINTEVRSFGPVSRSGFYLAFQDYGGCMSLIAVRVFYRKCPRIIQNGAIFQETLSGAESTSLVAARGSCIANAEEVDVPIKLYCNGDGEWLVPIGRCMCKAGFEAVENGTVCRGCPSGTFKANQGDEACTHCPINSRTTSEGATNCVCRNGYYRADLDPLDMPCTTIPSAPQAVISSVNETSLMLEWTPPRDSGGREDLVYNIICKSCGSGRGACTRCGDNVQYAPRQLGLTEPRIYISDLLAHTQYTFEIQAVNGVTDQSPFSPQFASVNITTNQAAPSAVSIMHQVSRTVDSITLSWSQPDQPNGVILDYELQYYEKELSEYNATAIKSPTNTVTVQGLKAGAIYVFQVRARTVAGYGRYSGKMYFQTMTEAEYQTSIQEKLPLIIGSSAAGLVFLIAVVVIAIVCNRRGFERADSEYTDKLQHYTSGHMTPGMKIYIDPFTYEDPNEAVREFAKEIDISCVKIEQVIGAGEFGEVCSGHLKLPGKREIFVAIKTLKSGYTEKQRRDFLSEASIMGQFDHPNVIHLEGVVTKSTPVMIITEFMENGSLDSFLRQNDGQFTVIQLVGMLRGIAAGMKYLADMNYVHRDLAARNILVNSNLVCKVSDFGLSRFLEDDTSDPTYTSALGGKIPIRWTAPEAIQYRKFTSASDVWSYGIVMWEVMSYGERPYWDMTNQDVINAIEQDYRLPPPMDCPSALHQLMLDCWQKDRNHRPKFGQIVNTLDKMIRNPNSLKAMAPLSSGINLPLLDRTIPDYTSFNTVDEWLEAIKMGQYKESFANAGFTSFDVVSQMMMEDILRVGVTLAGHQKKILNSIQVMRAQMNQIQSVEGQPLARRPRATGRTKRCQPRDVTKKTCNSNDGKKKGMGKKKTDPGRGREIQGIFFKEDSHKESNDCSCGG

Row | Sequence | phosphorylation enrichment (AncSZ) | phosphorylation enrichment (EPHB1) | phosphorylation enrichment (EPHB2) | phosphorylation enrichment (FGFR1) | phosphorylation enrichment (FGFR3) | phosphorylation enrichment (Fer (mouse)) | phosphorylation enrichment (Fes) | phosphorylation enrichment (Fyn) | phosphorylation enrichment (Hck) | phosphorylation enrichment (Jak2) | phosphorylation enrichment (MERTK) | phosphorylation enrichment (c-Abl (mouse)) | phosphorylation enrichment (c-Src) | SH2 binding enrichment (Grb2 SH2) | SH2 binding enrichment (SHP2-C SH2) | SH2 binding enrichment (c-Src SH2)
1 | VIKDKYPKVRF [APTX_Y209_A212V_YF] | 0.493 | 0.4 | 0.373 | 0.444 | 0.599 | 0.448 | 0.591 | 0.278 | 0.443 | 0.734 | 0.4 | 0.56 | 0.452 | 1.4 | 1.4 | 1.04
2 | VIKDKYPQARY [APTX_Y209_K211Q] | 0.498 | 0.401 | 0.394 | 0.358 | 0.453 | 0.42 | 0.569 | 0.363 | 0.373 | 0.554 | 0.377 | 0.523 | 0.43 | 0.888 | 0.66 | 0.532
3 | VIVRMYDYHVL [RPF2_Y109_G106V] | 1.2 | 2.24 | 3.26 | 3.25 | 2.12 | 4.25 | 1.04 | 0.499 | 0.587 | 0.975 | 2.39 | 0.746 | 0.498 | 1.54 | 1.53 | 1.36
4 | VMLENYSNLLS [ZFP69_Y109_V113L] | 0.66 | 1.97 | 0.864 | 0.559 | 0.586 | 0.372 | 0.832 | 0.396 | 0.422 | 0.699 | 0.388 | 0.595 | 0.428 | 0.899 | 0.928 | 0.778
5 | VMTLDYSKTVV [SETD2_Y770_V768L] | 0.719 | 0.571 | 0.52 | 0.419 | 0.701 | 0.449 | 0.738 | 0.37 | 0.439 | 0.775 | 0.372 | 0.643 | 0.415 | 0.845 | 0.722 | 0.458
6 | VMTSKYRGGGG [HBA1_Y141_L137M] | 0.433 | 0.332 | 0.427 | 0.444 | 0.467 | 0.378 | 0.491 | 0.378 | 0.39 | 0.424 | 0.36 | 0.384 | 0.363 | 0.834 | 0.792 | 0.691
7 | VMTVDYSKTVV [SETD2_Y770] | 0.638 | 0.379 | 0.417 | 0.456 | 0.485 | 0.493 | 0.749 | 0.451 | 0.434 | 0.615 | 0.35 | 0.574 | 0.319 | 0.937 | 1.19 | 0.528
8 | VMVCAYLLHRG [PTEN_Y138_I135V] | 1.13 | 0.614 | 0.538 | 0.502 | 0.78 | 0.558 | 1.3 | 0.478 | 0.584 | 1.23 | 0.481 | 1.18 | 0.558 | 0.91 | 0.723 | 0.724
9 | VNCHQYDGLVE [ATP2A2_Y407] | 1.06 | 0.658 | 0.659 | 0.614 | 0.818 | 0.598 | 1.2 | 0.626 | 0.651 | 0.848 | 0.499 | 0.672 | 0.531 | 1.18 | 0.983 | 12.5
10 | VNFGAYINDFN [GLB1_Y488_K493N_YF] | 0.954 | 0.633 | 0.6 | 0.474 | 0.708 | 0.571 | 1.07 | 0.451 | 0.46 | 0.899 | 0.409 | 0.788 | 0.397 | 3.12 | 0.674 | 1.48
11 | VNRSGYTLIRK [ATP6V0A2_Y688] | 0.64 | 0.333 | 0.444 | 0.315 | 0.452 | 0.366 | 0.672 | 0.533 | 0.429 | 0.429 | 0.386 | 0.568 | 0.43 | 0.56 | 0.814 | 1.74
12 | VPLATYMQIYK [RPL21_Y30_R32Q] | 0.749 | 1.98 | 0.737 | 0.448 | 0.53 | 0.315 | 0.636 | 0.975 | 2.01 | 0.51 | 0.541 | 0.565 | 1.16 | 0.909 | 0.791 | 0.73
13 | VPTSKYRGGGG [HBA1_Y141_L137P] | 0.392 | 0.284 | 0.341 | 0.392 | 0.349 | 0.327 | 0.457 | 0.452 | 0.355 | 0.572 | 0.392 | 0.446 | 0.363 | 0.929 | 0.597 | 0.558
14 | VQDPAYLRDIN [OPRK1_Y369_D374N] | 0.828 | 0.608 | 0.485 | 0.415 | 0.623 | 0.46 | 0.974 | 0.467 | 0.442 | 0.766 | 0.333 | 0.604 | 0.488 | 0.75 | 0.555 | 0.454
15 | VRFMAYTDEIF [F8_Y450_T454I] | 1.21 | 0.598 | 0.595 | 0.608 | 0.753 | 0.65 | 1.21 | 0.434 | 0.436 | 1.07 | 0.697 | 1.23 | 0.434 | 1.07 | 0.72 | 0.554
16 | VSYDEYRYRSF [CFTR_Y515_V520F] | 0.89 | 0.69 | 0.467 | 0.486 | 0.606 | 0.435 | 0.951 | 0.548 | 0.598 | 0.983 | 0.522 | 0.916 | 0.939 | 0.72 | 0.717 | 0.676
17 | VTPVMYTYDEY [COL10A1_Y623_G618V] | 1.15 | 0.633 | 0.798 | 0.637 | 0.795 | 0.542 | 1.05 | 1.61 | 0.932 | 0.917 | 0.912 | 0.568 | 2.22 | 1.05 | 0.685 | 2.44
18 | VVHSSYDEIEG [SEC24A_Y263] | 1.04 | 0.51 | 0.549 | 0.493 | 0.648 | 0.492 | 1.12 | 0.498 | 0.475 | 0.892 | 0.429 | 0.713 | 0.442 | 1.03 | 0.87 | 36.8
19 | WAFNLYDINKF [KCNIP3_Y174_D179Y_YF] | 1.02 | 2.22 | 3.11 | 0.497 | 0.669 | 4.81 | 1.26 | 2.08 | 3.36 | 0.933 | 3.37 | 0.662 | 1.61 | 0.905 | 0.731 | 0.519
20 | WDLSEYSYKDP [ITGA3_Y237] | 1.85 | 0.424 | 0.568 | 0.513 | 0.631 | 0.449 | 0.998 | 0.914 | 0.673 | 0.997 | 0.416 | 0.614 | 0.916 | 0.932 | 0.704 | 0.878
21 | WLFFRYLPIGC [ATP2A2_Y836_A838P] | 1.29 | 0.529 | 0.531 | 0.538 | 0.778 | 0.559 | 1.3 | 0.38 | 0.477 | 1.14 | 0.415 | 0.657 | 0.345 | 1.26 | 1.36 | 0.796
22 | WVYNHYRWFIW [BRCA2_Y2624_I2627F] | 1.12 | 0.506 | 0.466 | 0.406 | 0.667 | 0.49 | 1.24 | 0.441 | 0.403 | 1.15 | 0.418 | 0.777 | 0.433 | 0.966 | 0.733 | 0.666
23 | YARECYSALPQ [SARS2_Y52_G51C] | 1.16 | 0.712 | 0.868 | 2.42 | 1.57 | 0.663 | 0.972 | 0.636 | 3.13 | 0.666 | 1.7 | 0.716 | 0.676 | 0.74 | 0.753 | 0.776
24 | YFCRWYRNRKS [EREG_Y144] | 0.864 | 0.621 | 0.572 | 0.61 | 0.515 | 0.478 | 0.635 | 0.618 | 0.741 | 0.683 | 0.889 | 0.714 | 0.753 | 0.716 | 0.623 | 0.571
25 | YGAHKYHPLPV [OAT_Y55_N54K] | 0.657 | 0.371 | 0.39 | 0.444 | 0.403 | 1.08 | 0.892 | 0.611 | 0.787 | 0.557 | 0.442 | 0.498 | 0.562 | 1.65 | 1.74 | 1.36
26 | YGMQLYQNYMH [GRB14_Y347] | 1.11 | 9.11 | 12.4 | 0.888 | 0.909 | 8.99 | 1.02 | 4.92 | 4.84 | 0.727 | 3.75 | 1.2 | 3.97 | 6.36 | 1.22 | 1.6
27 | YGMSSYITRED [FNDC3B_Y180_T179S] | 0.819 | 0.545 | 0.452 | 0.529 | 0.696 | 0.524 | 0.844 | 0.423 | 0.431 | 0.697 | 0.544 | 0.645 | 0.51 | 0.764 | 0.669 | 0.472
28 | YHLLPYTVRAM [PARS2_Y93] | 1.28 | 2.32 | 1.47 | 16.5 | 13.9 | 0.595 | 0.913 | 3.04 | 8.34 | 6.87 | 9.72 | 24.6 | 3.84 | 1.15 | 1.81 | 5.37
29 | YIILIYAMKKK [SLCO1B1_Y645] | 0.588 | 0.486 | 0.348 | 0.331 | 0.692 | 0.399 | 0.511 | 0.514 | 0.53 | 0.451 | 0.416 | 0.426 | 0.363 | 2.34 | 2.86 | 2.04
